Patent publication US20120129757A1, “COMPOSITIONS AND METHODS FOR PROMOTING VASCULAR BARRIER FUNCTION AND TREATING PULONARY FIBROSIS” (priority 2008, published 2012)
“Also recorded” adds a separate entry of the source.

Key:
BL/6 mice = type: in vivo, mouse
C57BL/6 mice [1] = type: in vivo, mouse
HMVEC-lung [2] = assay: Immunofluorescence for VE-cadherin and p120-catenin after IL-1β stimulation; type: cell-based, human; conditions: 10 ng/mL IL-1β 3 hours, Slit2N pre-treatment 30 minutes
Protocol: Immunofluorescence. Immunofluorescence was performed as described in Jones, C. […] 2008. Cells were pre-treated with Slit2N or Mock for 30 minutes followed by stimulation with 10 ng/mL IL-1β for 3 hours. Primary antibodies to VE-cadherin (BD biosciences) or p120-catenin (Santa Cruz) were applied at 4° C. overnight. Images are representative of three independent experiments.

HMVEC-lung [3] = assay: Subcellular (membrane) fractionation and immunoblotting; type: cell-based, human
Protocol: Subcellular fractionation. HMVEC-lung were treated with Slit2N or Mock in 0.1% FBS EBM-2 for 1.5 hours. Cells were then washed twice with ice-cold PBS containing Ca^2+/Mg^2+, once with HLB buffer (10 mM Tris-HCl PH7.4, 5 mM KCl, 1 mM MgCl2), and collected in HLB buffer supplemented with protease inhibitors (Roche), phosphatase inhibitors (Sigma) and 1 mM DTT. Cells were then dounce-homogenized (20 strokes). The homogenate was centrifuged at 400 g for 10 minutes at 4° C. to pellet cell debris. The resulting supernatant was centrifuged again at 16,000 g for 30 minutes at 4° C. The pellet was washed once with HLB and resuspended in RIPA buffer for 30 minutes at 4° C. The resuspended pellet was centrifuged (16,000 g/15 min at 4° C.), and the resulting supernatant was saved as soluble membrane fraction. To obtain the total cell lysate an aliquot was saved prior to dounce homogenization. RIPA buffer was added to this aliquot and centrifuged at 13,000 g for 10 minutes at 4° C. The supernatant was saved and used as total cell lysate. Antibodies to VE-cadherin were obtained from Cell Signaling, and p120-catenin and β-catenin from BD biosciences.

VE-cadherin = VE-cadherin internalization assay; type: cell-based, human; conditions: HMVEC-lung, 10 ng/ml IL-1β 1 hour, 10 nM Slit2N
Protocol: Internalization assay. VE-cadherin internalization was performed as described Xiao, K., J. Garner, K. M. Buckley, P. A. Vincent, C. M. Chiasson, E. Dejana, V. Faundez, and A. P. Kowalczyk. 2005. p120-Catenin regulates clathrin-dependent endocytosis of VE-cadherin. Mol Biol Cell 16:5141-5151. In brief, HMVEC-lung were seeded onto chamber slides and cultured for 72 hours. The media was then removed and the cells labeled for 30 minutes at 4° C. with anti-VE-cadherin antibody (clone BV6, RDI Fitzgerald). Cells were then pre-treated with Slit2N or Mock for 30 minutes. Excess antibody was removed by washing twice on ice with ice-cold media. Chamber slides were moved to 37° C. and incubated for 1 hour with 10 ng/ml IL-1β and 0.6 mM primaquine in the presence of 10 nM Slit2N or Mock. Cells were acid-washed to strip the surface-bound VE-cadherin. Monolayers were washed, fixed, and permeablized. Internalized VE-cadherin antibody was detected with Alexa 488-conjugated donkey anti-mouse IgG (Molecular Probes). Images are representative of four independent experiments.

[4] = tested on: H5N1 virus (Influenza A, Duck/MN/1525/81); type: in vivo, BALB/c mice
primary human PMNs = assay: Neutrophil migration to fMLP, primary hPMNs; type: cell-based; conditions: fMLP 10 μM, 2 h
Protocol: Neutrophil migration. HL-60 cells were grown under standard conditions with RPMI-1640 media supplemented with 10% FBS and 1% pen/step. Cells induced with 1.2% dimethyl sulphoxide (DMSO) were obtained by seeding HL-60 cells at 3×10^6 per mL in growth media and culturing for 4 6 days (Collins, S. J., F. W. Ruscetti, R. E. Gallagher, and R. C. Gallo. 1978. Terminal differentiation of human promyelocytic leukemia cells induced by dimethyl sulfoxide and other polar compounds. Proc Natl Acad Sci USA 75:2458-2462). hPMNs were isolated from healthy adult donor whole blood with ACD using techniques described in Zimmerman, G. A., T. M. McIntyre, and S. M. Prescott. 1985. Thrombin stimulates the adherence of neutrophils to human endothelial cells in vitro. J Clin Invest 76:2235-2246. The leukocyte chemoattractant fMLP (10 μM) along with Slit2 or Mock was placed in the lower wells of a 48-well chemotaxis chamber (Neuroprobe). A fibronectin coated (over night at 4° C.) polycarbonate membrane (Neuroprobe, 5 μm) was placed between the chemoattractant and the cells. HL-60 cells induced with DMSO or hPMNs (50 μl, 50,000 cells) were added to the upper wells. […] Migrated cells in 5 high power fields were counted and migration expressed as the percent of cells migrated compared to cells migrated towards fMLP in the absence of Slit2 or Mock.

[5] = tested on: VE-cadherin/p120-catenin interaction; assay: Immunoprecipitation of VE-cadherin, immunoblot for p120-catenin; type: cell-based, human; conditions: HMVEC-lung, 10 ng/mL IL-1β 10 minutes
Protocol: Immunoprecipitation. HMVEC-lung were treated with Slit2N or Mock in 0.1% FBS EBM-2 for 30 minutes. Cells were then stimulated with 10 ng/mL IL-1β for 10 minutes. HMVEC-lung were then washed with ice-cold PBS and lysed with ice-cold lysis buffer (10 mM Tris-HCl pH7.4, 50 mM NaCl, 1% NP-40 and 10% glycerol) supplemented with protease inhibitors, phosphatase inhibitors and 1 mM DTT. Cell lysates were incubated on ice for 30 min and centrifuged at 13,000 g for 15 minutes to pellet cell debris. Protein concentrations were determined by BCA assay (PIERCE) and 0.5 mg lysate were incubated with 8 μg of VE-cadherin antibody (Cell Signaling) and protein A/G sepharose (Santa Cruz) for 1 hour at 4° C. Complexes were washed three times with lysis buffer. The immunoprecipitates were subjected to Western blot analysis.

C57BL/6 mice [6] = type: in vivo, mouse; remark: listed apart in the source
endothelial cell = assay: VEGF mediated endothelial cell migration; type: cell-based; conditions: Slit constructs 2 nM
[7] = 20 μg VE-cadherin blocking antibody (BV13) IV, LPS IT
[8] = Robo4+/+ mice, 24 hours after LPS, dose-dependent
[9] = Slit2N vs Mock, membrane fraction

`COc1nc(-c2ccc3c(c2)OCO3)n(-c2ccc(NC(=O)CSc3ccccc3)cc2)n1` [SecinH3, reference compound] was tested, and the “Bleomycin-induced fibrosis (Sircol collagen assay)” value (BL/6 mice; BL/6 mice, 0.05 U Bleomycin intranasal, 100 uL of 30 uM SecinH3 i.p. twice a day, day 11) was “inhibits”.

B1: Slit2N: N-terminal active fragment of Slit2 released by proteolytic cleavage; 150 kD recombinant protein, SEQ ID NO: 4 (protein, listed as Homo sapiens)
chain: QACPAQCSCSGSTVDCHGLALRSVPRNIPRNTERLDLNGNNITRITKTDFAGLRHLRVLQLMENKISTIERGAFQDLKELERLRLNRNHLQLFPELLFLGTAKLYRLDLSENQIQAIPRKAFRGAVDIKNLQLDYNQISCIEDGAFRALRDLEVLTLNNNNITRLSVASFNHMPKLRTFRLHSNNLYCDCHLAWLSDWLRQRPRVGLYTQCMGPSHLRGHNVAEVQKREFVCSDEEEGHQSFMAPSCSVLHCPAACTCSNNIVDCRGKGLTEIPTNLPETITEIRLEQNTIKVIPPGAFSPYKKLRRIDLSNNQISELAPDAFQGLRSLNSLVLYGNKITELPKSLFEGLFSLQLLLLNANKINCLRVDAFQDLHNLNLLSLYDNKLQTIAKGTFSPLRAIQTMHLAQNPFICDCHLKWLADYLHTNPIETSGARCTSPRRLANKRIGQIKSKKFRCSGTEDYRSKLSGDCFADLACPEKCRCEGTTVDCSNQKLNKIPEHIPQYTAELRLNNNEFTVLEATGIFKKLPQLRKINFSNNKITDIEEGAFEGASGVNEILLTSNRLENVQHKMFKGLESLKTLMLRSNRITCVGNDSFIGLSSVRLLSLYDNQITTVAPGAFDTLHSLSTLNLLANPFNCNCYLAWLGEWLRKKRIVTGNPRCQKPYFLKEIPIQDVAIQDFTCDDGNDDNSCSPLSRCPTECTCLDTVVRCSNKGLKVLPKGIPRDVTELYLDGNQFTLVPKELSNYKHLTLIDLSNNRISTLSNQSFSNMTQLLTLILSYNRLRCIPPRTFDGLKSLRLLSLHGNDISVVPEGAFNDLSALSHLAIGANPLYCDCNMQWLSDWVKSEYKEPGIARCAGPGEMADKLLLTTPSKKFTCQGPVDVNILAKCNPCLSNPCKNDGTCNSDPVDFYRCTCPYGFKGQDCDVPIHACISNPCKHGGTCHLKEGEEDGFWCICADGFEGENCEVNVDDCEDNDCENNSTCVDGINNYTCLCPPEYTGELCEEKLDFCAQDLNPCQHDSKCILTPKGFKCDCTPGYVGEHCDIDFDDCQDNKCKNGAHCTDAVNGYTCICPEGYSGLFCEFSPPMVLPRT
For B1, the “inflammatory cell infiltration in BALF in the presence of a VE-cadherin blocking antibody” value (C57BL/6 mice [1]; [7]) was “not”, the “protein exudates in BALF in the presence of a VE-cadherin blocking antibody” value (C57BL/6 mice [1]; [7]) was “not” and the “inflammatory cell infiltration in BALF in the presence of a control IgG antibody” value (C57BL/6 mice [1]; 20 μg control IgG IV, LPS IT) was “reduced”. The “protein exudates in BALF in the presence of a control IgG antibody” value (C57BL/6 mice [1]; 20 μg control IgG IV, LPS IT) was “reduced”, the “vascular leak in the lungs (Evans Blue Albumin)” value (C57BL/6 mice [1]; LPS treated Robo4+/+ mice, 10 μg LPS IT, 3.5 μg Slit2N IV) was “significantly reduces” and the “effect on vascular leak in the lungs (Evans Blue Albumin), Robo4-null mice” value (C57BL/6 mice [1]; LPS treated Robo4AP/AP mice) was “lost”. For the same molecule, the “LPS-induced lung inflammation / ALI by histological examination (H&E, quantitative histology)” value (C57BL/6 mice [1]; Robo4+/+ mice) was “reducing; also recorded: reduces”, the “inflammatory cell accumulation in BALF” value (C57BL/6 mice [1]; [8]) was “reduced” and the “protein exudates in BALF” value (C57BL/6 mice [1]; [8]) was “reduced”. For the same molecule, the “inhibition of leukocyte accumulation in BALF, Robo4-null mice” value (C57BL/6 mice [1]; Robo4AP/AP mice) was “lost”, the “inhibition of protein accumulation in BALF, Robo4-null mice” value (C57BL/6 mice [1]; Robo4AP/AP mice) was “lost” and the “Bleomycin-induced pulmonary fibrosis (Sircol collagen)” value (BL/6 mice; Robo4+/+ mice, day 11, 5 μg daily i.p.) was “significantly reduced”. For the same molecule, the “Bleomycin-induced EBA accumulation in the lung” value (BL/6 mice; Robo4+/+ mice, eleven days after Bleomycin, 5 μg daily i.p.) was “significantly reduced”, the “histologic examination of the lung, trichrome stain (collagen deposition)” value (BL/6 mice; Robo4-dependent manner) was “confirmed the effect” and the “effect on Bleomycin-induced EBA accumulation in the lung, Robo4-null mice” value (BL/6 mice; Robo4AP/AP mice) was “lost”. The “effect on Bleomycin-induced pulmonary fibrosis, Robo4-null mice” value (BL/6 mice; Robo4AP/AP mice) was “lost”, the “IL-1β decrease of p120-catenin at the cell surface” value (HMVEC-lung [2]) was “reversed this effect” and the “IL-1β reduction of VE-cadherin levels at the cell surface” value (HMVEC-lung [2]) was “negated this effect”. For the same molecule, the “VE-cadherin levels at the cell surface junctions” value (HMVEC-lung [3]; Slit2N vs Mock 1.5 hours, membrane fraction and immunofluorescence) was “significantly increased”, the “cell surface p120-catenin expression” value (HMVEC-lung [3]; [9]) was “increased” and the “other junction or catenin family members (β-catenin)” value (HMVEC-lung [3]; [9]) was “no observed effect”. The “internalization of VE-cadherin induced by IL-1β” value (VE-cadherin) was “blocks”, the “lung pathology (H&E)” value ([4]; 6 days after infection, compared to mock treated mice) was “decreased in severity” and the “level of inflammatory cytokine release in lung homogenates” value ([4]; 6 days post-infection) was “does not significantly reduce”. The “lung viral titers (viral load)” value ([4]; 6 days post-infection) was “did not alter”, the “mortality after H5N1 infection” value ([4]; 21 days, 1.56 μg IV daily for 5 days) was “reduced” and the “neutrophil migration to fMLP” value (primary human PMNs) was “did not respond”. The “association of VE-cadherin and p120-catenin after IL-1β” value [5] was “restores”, the “survival of mice exposed to CLP-induced sepsis” value (C57BL/6 mice [6]; mouse, in vivo, ip) was about 80% and the “expression of a panel of cytokines and chemokines in plasma” value (C57BL/6 mice [6]; six hours after CLP) was “did not alter”.

B2: Slit2-D1: Recombinant Slit2 construct, 40 kD, SEQ ID NO: 7 (protein, listed as Homo sapiens)
chain: ILNKVAPQACPAQCSCSGSTVDCHGLALRSVPRNIPRNTERLDLNGNNITRITKTDFAGLRHLRVLQLMENKISTIERGAFQDLKELERLRLNRNHLQLFPELLFLGTAKLYRLDLSENQIQAIPRKAFRGAVDIKNLQLDYNQISCIEDGAFRALRDLEVLTLNNNNITRLSVASFNHMPKLRTFRLHSNNLYCDCHLAWLSDWLRQRPRVGLYTQCMGPSHLRGHNVAEVQKREFVCS
In the case of B2, the “Inhibition of VEGF mediated endothelial cell migration” value (endothelial cell) is reported as “active”.
